From patent US20240174744A1 (SCIRHOM, published 2024)

T1: dog iRhom2 full length wild type, C-terminally tagged with 3 consecutive copies of the T7 epitope (dog, UniProt Q00M95 1-827)
T1 construct: whole, on cells; also called Dog-iR2-FL-WT-T7
T1 sequence: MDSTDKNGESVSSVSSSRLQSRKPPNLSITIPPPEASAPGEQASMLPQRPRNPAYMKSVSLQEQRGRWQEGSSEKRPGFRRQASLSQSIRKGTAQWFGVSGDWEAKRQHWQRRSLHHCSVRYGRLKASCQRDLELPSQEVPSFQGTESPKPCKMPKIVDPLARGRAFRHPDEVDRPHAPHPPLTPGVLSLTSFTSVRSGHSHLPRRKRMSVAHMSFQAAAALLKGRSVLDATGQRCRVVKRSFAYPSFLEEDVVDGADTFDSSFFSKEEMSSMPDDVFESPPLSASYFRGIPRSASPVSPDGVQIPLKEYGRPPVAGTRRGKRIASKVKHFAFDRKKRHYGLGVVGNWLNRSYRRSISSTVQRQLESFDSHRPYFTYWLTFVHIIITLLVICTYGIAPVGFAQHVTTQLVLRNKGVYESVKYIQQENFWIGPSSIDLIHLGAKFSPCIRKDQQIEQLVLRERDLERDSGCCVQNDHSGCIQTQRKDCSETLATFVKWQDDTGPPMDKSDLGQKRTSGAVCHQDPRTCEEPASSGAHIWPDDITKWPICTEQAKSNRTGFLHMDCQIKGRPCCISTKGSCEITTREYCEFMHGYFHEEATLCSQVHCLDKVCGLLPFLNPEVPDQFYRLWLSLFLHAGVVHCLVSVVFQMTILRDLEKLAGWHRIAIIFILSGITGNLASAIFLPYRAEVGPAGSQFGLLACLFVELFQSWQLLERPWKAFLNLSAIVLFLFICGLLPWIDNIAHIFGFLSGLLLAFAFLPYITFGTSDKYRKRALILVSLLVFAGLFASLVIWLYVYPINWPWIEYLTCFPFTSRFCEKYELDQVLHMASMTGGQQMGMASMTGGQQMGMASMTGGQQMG

T2: hiR1-FL-WT-T7 (human iRhom1 full length wild type C-terminally tagged with 3 consecutive copies of the T7 … (human, UniProt Q96CC6 1-855))
T2 construct: also called human iRhom1 variant expressed by MEF-DKO-hiR1-FL-WT-T7 cells
T2 sequence: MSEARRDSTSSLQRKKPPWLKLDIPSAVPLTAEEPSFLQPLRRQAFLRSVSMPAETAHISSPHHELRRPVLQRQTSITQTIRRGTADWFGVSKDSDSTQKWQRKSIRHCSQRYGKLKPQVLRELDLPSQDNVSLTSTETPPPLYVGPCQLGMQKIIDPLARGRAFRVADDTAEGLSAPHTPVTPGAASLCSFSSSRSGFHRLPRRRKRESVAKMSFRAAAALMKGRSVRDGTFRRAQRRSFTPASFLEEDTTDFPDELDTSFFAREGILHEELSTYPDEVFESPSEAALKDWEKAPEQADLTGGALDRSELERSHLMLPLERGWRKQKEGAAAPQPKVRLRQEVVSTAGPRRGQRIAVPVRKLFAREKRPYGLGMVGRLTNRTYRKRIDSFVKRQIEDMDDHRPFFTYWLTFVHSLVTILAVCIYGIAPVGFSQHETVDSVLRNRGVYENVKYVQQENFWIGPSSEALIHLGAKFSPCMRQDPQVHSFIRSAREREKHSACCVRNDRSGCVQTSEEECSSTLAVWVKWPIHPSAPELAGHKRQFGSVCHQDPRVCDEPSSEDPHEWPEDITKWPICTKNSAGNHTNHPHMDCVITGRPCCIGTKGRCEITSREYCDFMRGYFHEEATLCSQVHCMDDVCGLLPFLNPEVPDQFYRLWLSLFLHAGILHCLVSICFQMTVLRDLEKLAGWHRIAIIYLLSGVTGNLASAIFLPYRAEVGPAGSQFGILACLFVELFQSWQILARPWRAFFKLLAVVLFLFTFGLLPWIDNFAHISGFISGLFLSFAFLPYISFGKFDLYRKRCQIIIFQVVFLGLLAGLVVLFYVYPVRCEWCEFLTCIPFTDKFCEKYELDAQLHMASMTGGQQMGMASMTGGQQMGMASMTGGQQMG

B1: antibody 16 (antibody, V domains shown)
VH: QVTLKESGPGILQPSQTLSLTCSFSGFSLSTFALGVGWIRQPSGRGLEWLAHIWWDDDKYYNPALKSRLTISKDTSKNHVFLKIANVDTADTATYYCARITTYYYGMDYWGQGTSVTVSS
VL: DIVLSQSPATLSVTPGDSVSLFCRASQSIGNHLHWYQQESHASPRLLIKYASQSISGIPSRFSGSGSGTDFTLSINSVETEDFGMYFCQQSYNWPLTFGAGTKLELK
notes: Mouse IgG, kappa light chain; also called clone #16; m16
B2: antibody 48 (antibody, V domains shown)
VH: QVQLQQSGTELVRPGTSVKVSCKASGYAFTNYLIEWVKQRPGQGLEWIGVINPGSGFTKYNEKFKGKATLTADKSSSTVYMHLSSLTSEDSAVYFCARGLYRAMDYWGQGTSVTVSS
VL: DIQMTQSPASQSASLGESVTITCLASQTIATWLAWYQQKPGKSPQLLIYGATTLADGVPSRFSGGGSGTKFSFKISSLQAEDFVSYYCQQLYSTPYTFGGGTKLEIK
notes: Mouse IgG, kappa light chain; also called clone #48; purified antibody 48

Assays:
[1] = target: T1, dog iRhom2 full length wild type, …; test: FACS on MEF-DKO-iR2 Dog cells, 3 µg/ml
Protocol: In brief, immortalized MEF-DKO-EV control cells, MEF-DKO-rhesus-iR2-FL-WT-T7 cells, MEF-DKO-cyno-iR2-FL-WT-T7 cells, MEF-DKO-dog-iR2-FL-WT-T7 cells and MEF-DKO-rabbit-iR2-FL-WT-T7 cells, as well as their respective iRhom1 counterparts, were harvested with 10 mM EDTA in PBS, washed and resuspended in FACS buffer (PBS, 3% FBS, 0.05% sodium azide), and seeded in Nunc U-bottom 96-well plates (Thermo Fisher Scientific, USA) at approximately 3×10⁵ cells per well. To pellet cells and remove supernatants, the plates were centrifuged at 1,500 rpm and 4° C. for 3 minutes. For primary staining, cells were resuspended in 100 μl per well of either FACS buffer alone (controls), mouse monoclonal anti-T7 IgG (Merck Millipore, USA) at 3 μg/ml FACS buffer or the antibodies of the present disclosure also at 3 μg/ml FACS buffer and incubated on ice for 1 hour. Afterwards, plates were centrifuged at 1,500 rpm and 4° C. for 3 minutes and washed twice with 200 μl per well of FACS buffer. For secondary staining, cells were spun down and resuspended in 100 μl per well of PE-conjugated goat anti-mouse IgG F(ab′)2 detection fragment (Dianova, Germany) diluted 1:100 in FACS buffer. Protected from light, the cell suspensions were incubated on ice for 1 hour. […] Finally, cells were resuspended in 150 μl per well of FACS buffer and analyzed using a BD Accuri™ C6 Plus flow cytometer (Becton Dickinson, Germany).

[2] = target: T2, hiR1-FL-WT-T7 (human iRhom1 full length …); test: FACS, MEF-DKO-hiR1-FL-WT-T7 cells

Row | Binder | binding result [1] | binding result [2]
1 | B1 | binds | –
2 | B2 | – | no binding (tested: 3 µg/ml)
